Experimental data as given in patent US20220017620A1.

Biological target: B7-H3 on Hs-700T pancreatic cancer cells (UniProt Q5ZPR3)
Assay: cell-based ELISA on fixed Hs-700T cells

B1: P1G2 full-length IgG1 antibody (antibody, V domains shown)
VH: QVQLQQSGAEVKKPGSSVKVSCKASGGTFSSYAISWVRQAPGQGLEWMGRIIPILGIANYAQKFQGRVTITADKSTSTAYMELSSLRSEDTAVYYCAVNYYDSSGYYSDYWGQGTLVTVSS
VL: SYELTQPPSASGSPGQSVTISCTGTSSDVGGYNYVSWYQQHPGKAPRLMIYGVSQRPSGVPDRFSGSKSGNTASLTVSGLQAEDEADYYCSSYANNNYVFGTGTKVTVL
Q: Which EC50 (read off the curve) does the source give for B1 here?
A: 0.03 µg/mL

B2: P1D1 full-length IgG1 antibody (antibody, V domains shown)
VH: QVQLVQSGAEVKKPGESLKISCKGSGYSFTSYWIGWVRQMPGKGLEWMGIIYPGDSDTRYSPSFQGQVTISADKSISTAYLQWSSLKASDTAMYYCARRSVAGLDYWGQGTLVTVSS
VL: KTVVTQPPSASGTPGQRVTISCSGSSSNIGSKYVYWYQQLPGTAPRLLIYRNNQRPSGVPDRFSGSKSGTSASLAISGLRSEDESDYYCASWDDRLKGYAFGTGTKVTVL
Q: How did the EC50 (read off the curve) turn out when B2 was run?
A: 0.03 µg/mL
